Test results taken from patent US20240228656A1 (HARPOON THERAPEUTICS, published 2024).

What was measured:
[1] = molecular target: T1, EpCAM H90.2 Mask27 L040 (EpCAM targeting ProTriTAC with H90.2); assay: binding assay with kinetics, affinity summary (instrument not stated)
T1 construct: trispecific prodrug; also called H90.2 ProTriTAC (L040)

[2] = molecular target: T2, EpCAM H90 Mask27 L040 (EpCAM targeting ProTriTAC with H90); assay: as above
T2 construct: trispecific prodrug: masked anti-albumin sdAb-L040-anti-CD3 scFv-anti-EpCAM sdAb H90-His6

[3] = molecular target: T3, EpCAM H13 Mask27 L040 (EpCAM targeting ProTriTAC with H13); assay: binding assay, affinity summary
T3 construct: trispecific prodrug: masked anti-albumin sdAb-cleavable linker L040-anti-CD3 scFv-anti-EpCAM sdAb H13-His6; also called H13 ProTriTAC (L040)
T3 sequence (chain, as listed by the source): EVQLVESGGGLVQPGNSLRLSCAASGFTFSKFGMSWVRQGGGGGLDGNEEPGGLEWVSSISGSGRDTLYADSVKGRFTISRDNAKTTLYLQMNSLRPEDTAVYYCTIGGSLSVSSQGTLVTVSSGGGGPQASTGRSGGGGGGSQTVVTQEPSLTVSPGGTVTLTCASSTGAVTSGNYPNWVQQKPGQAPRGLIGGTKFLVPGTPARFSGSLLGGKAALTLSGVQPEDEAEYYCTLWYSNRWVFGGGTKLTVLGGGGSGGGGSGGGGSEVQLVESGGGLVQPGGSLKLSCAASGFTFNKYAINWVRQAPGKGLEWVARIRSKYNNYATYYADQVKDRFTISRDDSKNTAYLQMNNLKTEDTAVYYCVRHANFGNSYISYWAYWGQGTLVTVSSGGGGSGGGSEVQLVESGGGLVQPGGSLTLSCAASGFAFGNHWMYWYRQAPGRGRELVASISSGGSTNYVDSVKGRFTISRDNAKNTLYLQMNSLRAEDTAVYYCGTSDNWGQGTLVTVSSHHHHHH

T1 sequence (chain, as listed by the source): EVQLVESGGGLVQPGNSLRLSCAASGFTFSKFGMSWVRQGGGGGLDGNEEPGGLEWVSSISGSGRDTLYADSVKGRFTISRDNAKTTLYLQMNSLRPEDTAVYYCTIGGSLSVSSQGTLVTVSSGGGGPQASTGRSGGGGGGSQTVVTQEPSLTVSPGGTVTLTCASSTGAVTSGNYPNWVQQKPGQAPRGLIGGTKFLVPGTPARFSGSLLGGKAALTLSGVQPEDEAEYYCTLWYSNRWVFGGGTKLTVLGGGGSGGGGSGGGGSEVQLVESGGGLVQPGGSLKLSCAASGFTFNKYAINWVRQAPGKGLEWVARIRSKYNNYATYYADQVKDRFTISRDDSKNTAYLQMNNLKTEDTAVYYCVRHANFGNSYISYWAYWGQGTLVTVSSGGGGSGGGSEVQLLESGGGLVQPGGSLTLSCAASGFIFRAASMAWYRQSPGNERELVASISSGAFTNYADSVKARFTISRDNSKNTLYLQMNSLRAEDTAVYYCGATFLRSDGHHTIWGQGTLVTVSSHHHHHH
T2 sequence (chain, as listed by the source): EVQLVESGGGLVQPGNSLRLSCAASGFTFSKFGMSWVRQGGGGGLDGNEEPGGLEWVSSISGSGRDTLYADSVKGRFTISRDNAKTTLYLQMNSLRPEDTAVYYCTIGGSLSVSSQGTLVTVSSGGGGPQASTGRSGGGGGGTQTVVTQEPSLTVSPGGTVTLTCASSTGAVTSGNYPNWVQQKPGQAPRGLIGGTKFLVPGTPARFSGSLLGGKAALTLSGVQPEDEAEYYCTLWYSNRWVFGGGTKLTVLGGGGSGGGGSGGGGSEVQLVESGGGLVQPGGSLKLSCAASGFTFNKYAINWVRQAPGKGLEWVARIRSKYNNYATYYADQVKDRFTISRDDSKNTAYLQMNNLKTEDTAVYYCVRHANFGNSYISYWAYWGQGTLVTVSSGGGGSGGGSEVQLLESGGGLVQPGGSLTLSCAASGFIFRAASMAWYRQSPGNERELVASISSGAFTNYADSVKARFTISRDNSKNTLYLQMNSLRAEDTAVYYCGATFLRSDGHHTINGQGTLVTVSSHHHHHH

- Kd [1]: 0.15 nM
- Kd [2]: 0.26 nM
- binding result [3]: no binding
B1: mouse EpCAM (other)
chain: QRDCVCDNYKLATSCSLNEYGECQCTSYGTQNTVICSKLASKCLAMKAEMTHSKSGRRIKPEGAIQNNDGLYDPDCDEQGLFKAKQCNGTATCWCVNTAGVRRTDKDTEITCSERVRTYWIIIELKHKERESPYDHQSLQTALQEAFTSRYKLNQKFIKNIMYENNVITIDLMQNSSQKTQDDVDIADVAYYFEKDVKGESLFHSSKSMDLRVNGEPLDLDPGQTLIYYVDEKAPEFSMQGLT
modifications: biotinylated
notes: also called muEpCAM (biotinylated version of mouse EpCAM antigen)
